Experimental data published in patent US20200165328A1 (Janssen / Centocor, published 2020).

Legend:
[1] = target: T1, human Aβ3pE-40 peptide (human, pyroglutamate at the third residue of Aβ (N-terminal residue of this peptide)); assay: SPR (Biacore T200), single cycle kinetics, antibody captured by anti-mouse antibody, peptide 3.125-50 nM, 1:1 fit, mean of n = 6
T1 construct: Synthetic peptide (AnaSpec)
Method: Immobilization of the anti-mouse antibody was performed via amine coupling on a CM5 sensor chip following the manufacturer's protocol. […] The surface was regenerated with 10 mM glycine HCl at pH 1.7 for at least 180 sec and additional 60 sec. Human Aβ (1-40) peptide was used as a negative control.
Affinity measurements were performed using an optical biosensor T200 (Biacore®). Kinetic analysis was performed according to 1:1 binding fitting model with Biacore T200 Evaluation Software (version 2.0).

[2] = target: T2, human Aβ1-42 peptide (human); assay: sandwich ELISA, Aβ/pE3/1 coated, detection with JRF/cAβ42/26-HRPO
T2 construct: Synthetic peptide; also called full-length human (Aβ1-42)
T2 sequence (peptide, as listed by the source): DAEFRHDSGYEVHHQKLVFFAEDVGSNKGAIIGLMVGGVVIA
Method: (§1) Concentrations up to 10,000 […] were tested.
(§2) Standards were dissolved in dimethylsulphoxide (DMSO) (Sigma) at 0.1 mg/mL and stored at −80° C. For use in ELISA, peptides were further diluted in 0.1% casein in PBS down to 1 μg/mL. […] Standards were incubated overnight at 4° C. together with HRPO-labeled secondary antibody (JRF/cAβ40/28-HRPO or JRF/cAβ42/26-HRPO). After overnight incubation, plates were washed and the assay was developed with TMB peroxide EIA substrate kit (Biorad) according to the manufacturer's recommendations.

[3] = target: T3, human Aβ3-42 peptide (human); assay: as above
T3 construct: Synthetic peptide; also called N-truncated (Aβ3-42)
T3 sequence (peptide, as listed by the source): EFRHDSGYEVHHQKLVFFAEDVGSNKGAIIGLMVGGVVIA
Method: as §1, §2

[4] = target: T1, human Aβ3pE-40 peptide; assay: sandwich ELISA: Aβ/pE3/1 coated as capture, peptide titrated, detection with JRF/cAβ40/28-HRPO, net OD 450 nm
Method: as §1, §2

[5] = target: T4, human Aβ1-40 peptide (human); assay: as above
T4 construct: Synthetic peptide
Method: as §1, §2

[6] = target: T5, human Aβ3-40 peptide (human); assay: as above
T5 construct: Synthetic peptide (AnaSpec), N-truncated, no pyroglutamate
Method: as §1, §2

[7] = target: T6, rodent Aβ3pE-40 (rodent, UniProt P12023 674-711, pyroglutamate at the third residue of Aβ (N-terminal residue of this peptide)); assay: sandwich ELISA, Aβ/pE3/1 coated, detection with JRF/cAβ40/28-HRPO
T6 construct: domain: Aβ3pE-40; Synthetic peptide
T6 peptide (looked up): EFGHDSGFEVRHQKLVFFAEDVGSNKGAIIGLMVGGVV
Method: as §1, §2

[8] = target: T1, human Aβ3pE-40 peptide; assay: sandwich ELISA, antibody coated, peptide standard, detection with JRF/cAβ40/28-HRPO
Method: (§3) For the selected Aβ3pE monoclonal antibodies, the sensitivity for detection of Aβ3-40 (SEQ ID NO:24) (AnaSpec, Fremont, USA) and Aβ3pE-40 (SEQ ID NO:22) (AnaSpec, Fremont, USA) was evaluated in a sandwich assay using synthetic peptides as standards.
(§4) Standards of Aβ3-40 (SEQ ID NO:24) and Aβ3pE-40 (SEQ ID NO:22) peptides were dissolved in dimethylsulphoxide (DMSO) (Sigma) at 0.1 mg/mL and stored at −80° C. For use in ELISA, peptides were further diluted in 0.1% casein in PBS down to 1 μg/mL. […] Standards were incubated overnight at 4° C. together with HRPO-labeled secondary antibody. After overnight incubation, the plates were washed and the assay was developed with Quantablu substrate (Pierce, Rockford, Ill.) according to the manufacturer's recommendations.

[9] = target: T5, human Aβ3-40 peptide; assay: as above
Method: as §3, §4

Kd [1]: 0.853 nM | binding result [2]: no binding (tested: up to 10 ng/mL) | binding result [3]: binds | EC50 (read off the curve) [4]: ~0.1 ng/mL | binding result [5]: no binding (tested: 10000 pg/ml (LOG 4)) | EC50 (read off the curve) [6]: ~1 ng/mL | binding result [7]: no binding (tested: up to 10 ng/mL) | EC50 [8]: 0.026 nM | EC50 [9]: 0.355 nM
B1: Aβ/pE3/1 (antibody, mouse IgG2a, kappa, V domains shown)
VH: QVQLQQPGAELVRPGASVKLSCKTSGYTFTRYWINWVKQRPGQGLEWIGNIRPSDSYTNYNQKFKDKATLTVDKSSSTAYMQLNRPTSEDSAVYYCTREGAYSDYETYWGQGTLVTVSA
VL: not shown
notes: Murine monoclonal; also called Clone 1; antibody from clone 1
